Reference: the DeepSol protein solubility set

Test: soluble on expression in E. coli; label from the status in PepcDB or PDB records

| Sequence | soluble on expression in E. coli |
| --- | --- |
| MGSDKIHHHHHHVVLAVVVGRRTASLALRGRGGRSKGGIHLPQNRIRFGSVGCRDLRSQLRRLIEDETMSEPAEAFYLPLGDNRYEPTRATESPWDSQAQHGGPPTALLGHLLDTAAGPDKRLARITADFLGAIPRRPFRVDTVEIRPGRRIALLEARMVFDDRPAVVARAWAIETGPTPPATGEQLHPPALADADPALDLTGWGYGEAIEWRYTRGGYGTADSAADVWTRVRIPLIAGEKLTGLARTLVVADSANGVSAALPMEHWLFIPPSITVTLARFPDTEWVHMACRSHLSPDGLGVSHATLSDTDGYLGEVSQPLLVRPR | not soluble |
| SLPSVLDTLAAHSDNPSSFLALNSGNAYFHDGGFDGACAYRTSGRYVLQFGGPFTAPEHRARLLDAFAAHAGRRLVAVQLQRADAELYAAHGFTVNQLGASYAVDLSRFTLRGSRFVRLRNKISRARRAGLEVAEVMAGDDCAELDRIDQCWLRDKGRHVKELRFLVGQRNGSLQRHRRLFVGRIDGETAGYINYSPVYGSRSGWLHDLSRRRPDAPPGVMEALNATVMERLTAEGAGWLHFGFTPFTGLDPEHELPGASRMFTRFARLLAERGDVIYPAASQLEYKQKWAPHVVLPEYIAFRGRPRPGAVWQLLRATNAL | soluble |
| MKCKVYTVVVPNVQSATLLPIIREKVKPDSIVYTDTFRSYDVLDVSEFSHFRINHSTHFAENHNYINGIGNFWNHAKRHLQKFNGIPKEHFELYLKECEWRFNNSEIKSQISILKQLVKGSLVLEHHHHHH | not soluble |
| MAHHHHHHMEALFYDHAVASTATRQADLRQALQAFLADAASRSAVQLIALFVHIPVPSTVSVASHTASGSRTSSRTSSSREGGSAAARHAATGKAASAASPSPPAASRRRCNAAKLAWCAWEADRRLRQAAEDASEMNKWLAHDDLSASRKAGAGIARSYCRGAFVVAVAFLAPCTRDDIVVYESWQRCTEMCAEASAADVARGSASRTTRMLSPLRHARLIALSLGAPSLLLSWAERPTRCHLDSLLLPHQSLLVDLSWWVATASGSAGTVSDAAAGSRVSNSVLRDIFISDVQRSLKLPKGDSRCAVWISYATLLESLHPQVMGRIDGADGDGVSVDMRVAGSASRRKRGRNTLCGEFSGVDEQAFMMTYARIRHLLSSLNASQAGAVGHTRFLRVVLSYGGPSSALRRQLVHTCSRTEHGVTAVDAALLRTRSLVDVHALFGVLAGQDTVNVYSEAAAFVRTARRRASAGEAAQQRHQRIAVQSARVEVTSSPSSGPPGTEHEGVDSGAGNLCHNAFVERGARALARRLRLWERKRLGKRGKRGVHVRPRDKAARRPMKRGHAGTNDADSERVLVHAVERASRAAATPKTGNKRRAEPLASVDGRPSASATRALLPPQKQRRTDAVAVSPTLATDTALRWSEDVAGSG | not soluble |
| MSLNASEAVYKAILDSGVDFVTSVPCANLKTVLNYLNDNKDIQHIPVTREEEGIGVCAGAYLGGRKTALLMQNSGLGNSINAIGSLVKVYKIPILIIISHRGDLKEKISAQIPMGQWTKKLLETVEIPYFSPKTPDEAYKLIKDASELSINMEYPVAILLDALYWEHDKEGHHHHHH | soluble |
| MAHHHHHHMNGMRAYNLGSRRYHDVLRLQEAIFRKKIDRQMRYIRGDKSARLIPNVVLLVEHSSPVYTIGRRDTSNGIKAGCAAEVVKTRRGGGVTFHGPGQVTMYPIVNVQVLWKQCTASDKPRSPIEWFSSVLEQAMINVAGEYNIPAHRGRVGVWSDSWGDVAPRKMGFVGLQLGNWVSMHGAGLNVSNNLLYFNDIVMCEMPNEAATSLVEELRLRGLSGAEPTPHVIAPRLLHHFLLSMQQQESVVNTELVDLSIDGSWERSILCELE | not soluble |
| MSKLVVIGGGPAGYVAAITAAQNGKNVTLIDEADLGGTCLNVGCMPTKSLLESAEVHDIVRKSNHYGVTLNNGSISIDWKQMQVRKSQIVTQLVQGIQYLMKKNKIKVIQGKAKFETDHRVRVTYGDKEIVVDGEQFIIATGSEPTELPFAPFDGKWILNSTHAMSLKNIPKSLLIVGGGVIGCEFASIYSRLGTKVTIVEMAPQLLPGEDEDIAHILRGKLENDGVKIFTGATLKGLNSYKKQALFEYEGGIQEVNPEFVLVSVGRKPRVQQLNLEKAGIQYSNKGISVNEHMQTNVSHIYAAGDVIGGIQLAHVAFHEGTTAALYASGEDVKVNYHAVPRCIYTAPEIASVGLTEKDAKEQYGDIQIGEFPFTANGKALIIGEQTGKVKVIVEPKYQEIVGISIIGPRATELIGQGTVMIHTEVTADIMRDYIAAHPTLSESIHEALLQAVGHAVHA | not soluble |
| MSLVLDKLLYTGYNRLIDLGWRRSGHYLYKPNGKTSCCSLYTIRLDSYNFKIAKEQKKAIKKWVKYVNGKPLKPMKSEISTDYLNNAFQTIESLGAEKYSVTMEPCTYTDEKFEVFKKYQMQVHLEKEEEITKKGFSRFLCNSPLFNEDKGIKYGSYHQMYRFQGRLVAVGVLDLLPHGVSSVYLFYDPDMSKFSLGRISACREIWLALECGYRYYYMGYYIHTCPKMKYKATYSPSYLLNPGTNKWIPIENFTSLWNTGAPKYISFGDENNSDIQTAVDYDSSEDSSQNEDDYTLFNRQLPGILSVNVAESLVSENFANIGNSTFPTRHVLSYFPQVKHWFVEINAAVGEEVAKSYTLVLSSEGHHHHHH | not soluble |
| MEFIGDTRIVIINPLGAKKICRLTFEQIKVIYQEVKTHFENYRIIFTGLPQDLLTIPILEIETLPFDEFIYTVALTKYSDFVISVDTALVHIAAAYHKPTLAFYPNSRTPEYPSHLIWSPNHHKSIQIVSPTYTVKDIDTETLTNSVKRLSCIDKKLEHHHHHH | soluble |
| MGSDKIHHHHHHMTLEHRWTGAISRLDLASGVLQQPDGDWVDEQLHHGTKVVVILRGAMRALIDGCGSEFSIAGPTVCVIRAPADASGRQMITADEPLHYVMVKAAFEPGSEADRERDPLAPLFCTDRPSLQHIEAPRALQALCTQLEVCPFVGAARDLFLSAKAIEILALACDAVETNIATETLRPSLGDVERLKKARAILLERLGAPPNLPALAAAVGMNPRKLTDGFQAAFGTTVNDFLQDARLNEAYRLLSSGATNVSEAAHRVGYTPAYFSAVFRKRFGISPRDLL | not soluble |
| SNAMKIIFSASPANRAAAYALRQAVFVEERGISADVEFDVKDTDQCEYAVLYLQPDLPITTLRLEPQADHVMRFGRVCTRKAYRGHGWGRQLLTAAEEWATQRGFTHGEIHGELTAQRFYELCGYRVTAGPYDEDGAPVVIMHKQLL | soluble |
| MGSDKIHHHHHHATASESSKYIGLQLYSLRDLVKEEGIQKVLETAAKMGYKNLETASYDNGKIYGLAPAEFKKMVNDLGMKCTSAHLGQAFTKEKEAEVMSWWDQAIDAHNELGVKYMVQPWMPVNDKTTLDDLKMYCDYFNTVGYKTAAASIAFGYHNHDFEFRKIDDQLIYDFLLDNVSPNHVFFEMDVYWVMMGGGDPVAYLKNRPSQFKAIHIKDEKEIGASGKMNFKPIFDQMYANNVKDWYVEVEQYTNNDPVASVQQSYDFLNKADYVK | not soluble |
| MVKQISVFVENKPGRLAAVTEVLMKHNINIRAFTIADAGDFGIIRMVVDKTDEAYQALKEAGFTVRLTNVLAVEVEDKPGALHRIAKALGDAGVNIDYVYAFTSEKHKALIIFRVDDREKAKEVLEKLGVLFKGEIN | not soluble |
| AHHHHHHGSLEVQGISKKWKDFHLKDISFSVMDGEYFIVLGPSGAGKTVLLEIIAGIIPPDGGKVLLDGKDITLLPPEKRGIAYVPQNYALFPNMSVFDNIAFGLKVRRVPRSEIEKRVLEISEVLGIRHLLHRKPRTLSGGEQQRVAVARALVIEPEIILLDEPFANLDVQIRSRLINEMKRWRRELGFTAIHVTHSFEEALALGDRVGIMLNGKLVQVGEIREVFSRPNSEEVAKFLGFENIIEGIADGRVLHVGKLRIELPLEAKGRVRIGIRPEDILISTERIKTSARNVFKAKVEAIEDVGPLVKLTLNVCDITLRAFITRSSLVELGIEEGKEVYASFKASAIHVF | soluble |
| MPKMDVKGIAVTVYSENAMDFISLTDMLRAKDGDFFISDWLRNRNTVEFLGIWEQVHNPNFNYGEFATIRSQAGLNSYKISVKEWVARTHAIGLVAKAGRYGGTYAHKDIAFEFGMWISAEFKIYLIKEFQRLKEAEQQQLGWDIRRNLTKINYRIHTDAIQTNLIPPALTQSQISLIYASEADLLNMALFGKTAKQWREENPNNKGNIRDEANVSQLVCLANLETLNAHFIHQGLPQVERLKILNQTAIHQMKLLLADRSLKQLDGN | not soluble |
| MAHHHHHHMLRRTVARFMASEAIGPAHPDILWGFMDGRYAGPGWVSWIKQLPVETLTMQGGTSMTNMNDRAGVILDPEDPRHSMALIQWGPMNHYDGAFMQLSYGDYGEIKKGSRLMQVLYDHYLEPFSMNRVCAQLYFYQKVPNNYHASVEASAEYIGQTASLVGQVVVGMGSVIMEGVTVKGDTNCVYIAEGVQVMENTCIVSDAPTDLLAYQRHEAINPYQQWDGMDGVCRIMQNTMIEPNCFLDSCSIGPFNRIGHNTKILKGVTTGTMVHILPGSVVTADTRIGDGELWGGAPAVKLGKVSKFEWKRPYYASLLHKECVVESYRNMSRYGDQVVYFQDEMGKLDTLMLQFESDITPSVKAKMKEFVQGREPFHHMLTRITQGWSPANRPDDKNYNLCPPLPAVKLFAEHNNDSSDSSLHGTYMNITNIFNDFRW | not soluble |
| MGSDKIHHHHHHMSIQTPIRGLRSFCVASKCLSFKHAAAQLFLTPSAVSHQIKQLEEQLGFMLFKRNTRSIELTSSGKQFYQSIQPIIHQLESTISEFTHNQQNHTIVISLPEFFASELFIPRLSEWSEKNPSINLQLETVKAGSEPSQIADLSIVLANGKPNASIVQELFPIRYAAACNKKLYKKLKNSGFKALKNTPLILHRSRPWSWHQWAENLGVNDFDPKQIIQFDSMFGVARAAQQGMGIALVPLPMSKTWFSEQLLVKLFDEELNTNDRYYLIQHENMESKVELTLFANWVKETFMTDYL | not soluble |
| MKGRRPPASPTAAASAQLELPLLAPPAAPDAAPPSADPAQPDPAAPLGPDQRRLALGERTLVYHLKRSSRRTIGFVVDDRGLSITAPRWVTLAEIEHAIAEKQKWIFAKLAEWHTSAARRVLPPMRWEDGATLPFLGKPVMLKLESPIGALVFDADMRTLHLGLPPTATGQQIKDRVQGWLQTQARRLFGERLDVYAERLGVRHSAYALSSAATRWGSCTADGKIRLNWRLVHFPLSLIDYVVAHELAHLKEMNHSPRFWDTVESIFPEFREAREQLRSHPPEYLPVFLEHHHHHH | not soluble |
| MASKRALVILAKGAEEMETVIPVDVMRRAGIKVTVAGLAGKDPVQCSRDVVICPDASLEDAKKEGPYDVVVLPGGNLGAQNLSESAAVKEILKEQENRKGLIAAICAGPTALLAHEIGFGSKVTTHPLARDKMMNGGHYTYSENRVEKDGLILTSRGPGTSFEFALAIVEALNGKEVAAQVKAPLVLKDLEHHHHHH | soluble |
| MSLSDGYHRSPSSRVPRIEGCQHTADASPSDATGPRRHAMTAHNREPVDYLAGEMPLHRYCAHHAAQTPERIALLWYGRTICWRELDQLSTRLAVQFQRLGVARGDRVALFLQNCPQAILAHLAAAKLGAIAVPCLPLSRQHELRDQLTDCGAKILIAAADLMPIVDAARPGTAIATVITTRYADLQPAQPACRKALAVPPELIAADAASAPAGRGQAGSGQFDLMQLLAEPVDVAERNAVAAIQVDLDEVALMIYTSGTTGRPKGAMLTHRNALYKTAVTVQMSGIHAADVLLAAAPLSHIAGMLMGMNLMLYAGAPTILLFRFDPLAVLQAIDRYCVTWWYSMTPMNLAVMAHPEAGQYRMASLVNNPCTSFGAPLTEAIADRWRAFAGPKCRIYEAAYGLSETHTCDTVTPPDAPRWGWHGKIVPQTEVRIVDPRTGTALPPGRSGEITIRSPGVFRGYWRRDEATRAALQDGFLRTGDIGQVSPDGYLQWQGRLKELIKVSGYSVFPEDVEALLSRHPAIRQVAVTPLPDPDKGEVVCAHVVRMSGTALTEAELIAWSRENMAPYKVPRRVRFHDALPATVTGKILRRLLREEAAVAEGHHHHHH | soluble |
